{"source": "patent US20240307560A1", "about": "“HEPTAMETHINE CARBOCYANINE DYE-DOTA CONJUGATES COMPLEXED WITH LUTETIUM-177, YTTRIUM-90, OR GALLIUM-68, AND THEIR USES FOR IMAGE-GUIDED RADIOTHERAPY” (priority 2020, published 2024)", "key": {"[1]": {"assay": "in vivo", "parameters": "species or system Balb/C mice", "settings": "Balb/C, mouse, iv", "description": "DZ-1-Lys-DOTA-^68Ga (50 μCi) probe was injected into the tail vein of Balb/C mice (n=6, each about 20 g of body weight). Approximately 10 μL of blood from the contralateral tail vein was collected in capillary tubes at 2 min, 5 min, 15 min, 30 min, 1 h, 2 h and 4.5 h post probe injection. The capillaries were placed in pre-weighed tubes to measure the weight and radioactivity of the blood withdrawn. Radioactivity from each sample was measured by a gamma counter with radioactivity decay corrected to the time of probe injection, normalized for injected dose and blood weight, and expressed as percentage injected dose per gram blood (FIG. 2). Each animal was i.v. injected 50 μCi of the probe.\nDZ-1-Lys-DOTA-^177Lu (50 μCi) was injected into the tail vein of Balb/C mice (n=6, about 20 g). Approximately 10 μL of blood from the contralateral tail vein was collected in capillary tubes at 2 min, 5 min, 15 min, 30 min, 1 h, 2 h and 6 h post probe injection. The capillaries were placed in pre-weighed tubes to measure the weight and radioactivity of the blood withdrawn. Radioactivity from each sample was measured by a gamma counter with the radioactivity decay corrected to the time of probe injection, normalized for injected dose and blood weight, and expressed as percentage injected dose per gram blood."}, "[2]": {"test_system": "MDA-MB-231 breast cancer cells", "assay": "Cytotoxicity study, CCK-8", "settings": "for % cell viability: human", "description": "The MDA-MB-231 breast cancer cells were pre-seeded into 96-well plates (10^4 cells/well), and placed in a 37° C., 5% CO2 incubator until the cells were fully attached. Serially diluted DZ-1-Lys-DOTA-^90Y (100 μL) was added to each well (7 concentrations diluted from 20 μCi in half), and 3 replicate wells for each concentration point. After 24 and 48 hours of treatment, the supernatant was discarded, and 10 μL of CCK-8 solution and 100 μL of medium were added to each well. The culture was continued for 1 h in the incubator, and the absorbance of each well at 450 nm was measured with a microplate reader."}, "[3]": {"type": "in vitro ADME, Bovine", "settings": "for half-life (stability in serum): bovine", "description": "DZ-1-Lys-DOTA-^68Ga was incubated with Fetal Bovine Serum (FBS) at 37° C., and the stability of DZ-1-Lys-DOTA-^68Ga was analyzed by radio-TLC with 0.1M citric acid as eluent.\nThe % purity is a marker for stability, with a higher purity indicating a higher stability.\nThe DZ-1-Lys-DOTA-^177Lu was incubated with Fetal Bovine Serum (FBS) at 37° C., and the probe was analyzed by radio-TLC with 0.1M citric acid as eluent (see FIG. 3). Stability is determined by the percentage of the labeled compound (radiochemical purity).\nThe DZ-1-Lys-DOTA-^90Y was incubated with Fetal Bovine Serum (FBS) (V:V=2:1) at 37° C. and the probe was analyzed by radio-TLC with 0.1M citric acid as eluent."}, "[4]": {"settings": "50 uCi, total radioactivity, Normalized radioactivity in blood (% ID/g)"}}}
{"smiles": "CC1(C)C(/C=C/C2=C(Cl)C(=C/C=C3/N(CCCCCC(=O)NCCCCC(NC(=O)CN4CCN(CC(=O)O)CCN(CC(=O)O)CCN(CC(=O)O)CC4)C(=O)O)c4ccccc4C3(C)C)/CCC2)=[N+](CCCCS(=O)(=O)[O-])c2ccccc21", "note": "(single isomer, unassigned) [DZ-1-Lys-DOTA-68Ga, metal not drawn]", "values": [{"measurement": "elimination half-life for blood clearance (T1/2)", "setting": "[1]", "result": 30, "unit": "min"}, {"measurement": "Normalized radioactivity in blood (% ID/g)", "setting": "[1]; 50 uCi, 0.25 h", "result": 1.13, "unit": "% ID/g"}, {"measurement": "Normalized radioactivity in blood (% ID/g)", "setting": "[1]; 50 uCi, 0.5 h", "result": 0.97, "unit": "% ID/g"}, {"measurement": "Normalized radioactivity in blood (% ID/g)", "setting": "[1]; 50 uCi, 1 h", "result": 0.80, "unit": "% ID/g"}, {"measurement": "Normalized radioactivity in blood (% ID/g)", "setting": "[1]; 50 uCi, 2 h", "result": 0.70, "unit": "% ID/g"}, {"measurement": "tissue uptake at 2 min", "setting": "[1]; [4]", "result": 1.83, "unit": "%ID/g"}, {"measurement": "tissue uptake at 5 min", "setting": "[1]; [4]", "result": 1.44, "unit": "%ID/g"}, {"measurement": "tissue uptake at 4.5 h", "setting": "[1]; [4]", "result": 0.5, "unit": "%ID/g"}, {"measurement": "tissue uptake", "setting": "[1]; 50 uCi, total radioactivity, normalized radioactivity in blood (D/g)", "result": "~1.8", "unit": "%ID/g"}]}
{"smiles": "CC1(C)C(/C=C/C2=C(Cl)C(=C/C=C3/N(CCCCCC(=O)NCCCCC(NC(=O)CN4CCN(CC(=O)O)CCN(CC(=O)O)CCN(CC(=O)O)CC4)C(=O)O)c4ccccc4C3(C)C)/CCC2)=[N+](CCCCS(=O)(=O)[O-])c2ccccc21", "note": "(single isomer, unassigned) [DZ-1-Lys-DOTA-90Y, metal not drawn]", "values": [{"measurement": "breast cancer cells caused to die", "setting": "[2]; 20 μCi, within 48 hours", "result": 80, "unit": "%"}, {"measurement": "cancer cell killing compared to free 90Y (in words)", "setting": "[2]; 48 h, 20 microCi", "result": "kills MDA-MB-231 triple-negative breast cancer cells more effectively"}, {"measurement": "% cell viability", "setting": "[2]; 48 h, 0.3125 μCi", "result": 43.92, "unit": "%"}, {"measurement": "% cell viability", "setting": "[2]; 48 h, 0.625 μCi", "result": 42.08, "unit": "%"}, {"measurement": "% cell viability", "setting": "[2]; 48 h, 1.25 μCi", "result": 41.50, "unit": "%"}, {"measurement": "% cell viability", "setting": "[2]; 48 h, 2.5 μCi", "result": 39.63, "unit": "%"}, {"measurement": "% cell viability", "setting": "[2]; 48 h, 5 μCi", "result": 35.57, "unit": "%"}, {"measurement": "% cell viability", "setting": "[2]; 48 h, 10 μCi", "result": 35.46, "unit": "%"}, {"measurement": "% cell viability", "setting": "[2]; 48 h, 20 μCi", "result": 19.21, "unit": "%"}, {"measurement": "retention (radiochemical purity)", "setting": "[3]", "result": "about 30%"}, {"measurement": "half-life (stability in serum)", "setting": "[3]", "result": "about 240 min"}]}
{"smiles": "CC1(C)C(/C=C/C2=C(Cl)C(=C/C=C3/N(CCCCCC(=O)NCCCCC(NC(=O)CN4CCN(CC(=O)O)CCN(CC(=O)O)CCN(CC(=O)O)CC4)C(=O)O)c4ccccc4C3(C)C)/CCC2)=[N+](CCCCS(=O)(=O)[O-])c2ccccc21", "note": "(single isomer, unassigned) [DZ-1-Lys-DOTA-177Lu, metal not drawn]", "values": [{"measurement": "elimination half-life for blood clearance (T1/2)", "setting": "[1]", "result": 15, "unit": "min"}, {"measurement": "Normalized radioactivity in blood (% ID/g)", "setting": "[1]; 50 uCi, 2 min", "result": 1.26, "unit": "% ID/g"}, {"measurement": "Normalized radioactivity in blood (% ID/g)", "setting": "[1]; 50 uCi, 5 min", "result": 0.86, "unit": "% ID/g"}, {"measurement": "Normalized radioactivity in blood (% ID/g)", "setting": "[1]; 50 uCi, 0.25 h", "result": 0.51, "unit": "% ID/g"}, {"measurement": "Normalized radioactivity in blood (% ID/g)", "setting": "[1]; 50 uCi, 0.5 h", "result": 0.43, "unit": "% ID/g"}, {"measurement": "Normalized radioactivity in blood (% ID/g)", "setting": "[1]; 50 uCi, 1 h", "result": 0.36, "unit": "% ID/g"}, {"measurement": "Normalized radioactivity in blood (% ID/g)", "setting": "[1]; 50 uCi, 2 h", "result": 0.34, "unit": "% ID/g"}, {"measurement": "tissue uptake at 6 h", "setting": "[1]; [4]", "result": 0.23, "unit": "%ID/g"}, {"measurement": "retention (radiochemical purity)", "setting": "[3]", "result": "about 30%"}, {"measurement": "half-life (stability in serum)", "setting": "[3]", "result": "about 700 min"}]}
